Assay results published in article PMC9945983 (Proceedings of the National Academy of Sciences of the …, 2023).
One block for each binder: values may come before it.

What was measured:
[1] = molecular target: the molecule itself; assay: SEC-MALS
[2] = molecular target: T1, PARC6^685–819 as part of the PARC6^685–819–PDV1^263–272 fusion protein (Arabidopsis thaliana, UniProt Q8VY16 685-819); assay: crystal structure
T1 sequence (looked up): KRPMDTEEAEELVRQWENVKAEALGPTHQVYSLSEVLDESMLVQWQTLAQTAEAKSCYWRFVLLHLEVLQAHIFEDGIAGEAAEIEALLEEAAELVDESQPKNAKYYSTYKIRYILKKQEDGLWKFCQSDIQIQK

B1: PARC6^640–819 (PARC6C), C-terminal domain of PARALOG OF ARC6 (domain or fragment, Arabidopsis thaliana, UniProt Q8VY16 640-819, looked up)
chain: NGIVGNIKVLIDMLKMHCGEHPDALYLKSSGQSATSLSHSASELHKRPMDTEEAEELVRQWENVKAEALGPTHQVYSLSEVLDESMLVQWQTLAQTAEAKSCYWRFVLLHLEVLQAHIFEDGIAGEAAEIEALLEEAAELVDESQPKNAKYYSTYKIRYILKKQEDGLWKFCQSDIQIQK
modifications: intramolecular disulfide bond C657-C741 under oxidized conditions
stoichiometry N [1]: 2

binding result [2]: binds
Binder: DHLDVMMARG (peptide, UniProt Q9FK13 263-272, looked up) [PDV1C (PDV1^263–272) as part of the PARC6^685–819–PDV1^263–272 fusion protein]
